In article PMC8590968:

Legend:
[1] = target: Maackia amurensis lectin II (Maackia amurensis); experiment: immunostaining of cells or tissue
[2] = target: Sambucus nigra lectin (Sambucus nigra); experiment: immunostaining of cells or tissue
Chain of Sambucus nigra lectin (Sambucus nigra) (Q41358 29-289 limits assumed, chain 1 of 2): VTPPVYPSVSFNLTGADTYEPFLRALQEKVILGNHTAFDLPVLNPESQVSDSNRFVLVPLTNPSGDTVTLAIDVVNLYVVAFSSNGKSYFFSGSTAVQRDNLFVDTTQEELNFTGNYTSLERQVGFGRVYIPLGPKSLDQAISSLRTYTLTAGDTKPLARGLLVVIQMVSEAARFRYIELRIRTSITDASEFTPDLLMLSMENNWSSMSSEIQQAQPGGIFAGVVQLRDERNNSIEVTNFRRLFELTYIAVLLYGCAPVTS
Chain of Sambucus nigra lectin (Sambucus nigra) (Q41358 309-570 limits assumed, chain 2 of 2): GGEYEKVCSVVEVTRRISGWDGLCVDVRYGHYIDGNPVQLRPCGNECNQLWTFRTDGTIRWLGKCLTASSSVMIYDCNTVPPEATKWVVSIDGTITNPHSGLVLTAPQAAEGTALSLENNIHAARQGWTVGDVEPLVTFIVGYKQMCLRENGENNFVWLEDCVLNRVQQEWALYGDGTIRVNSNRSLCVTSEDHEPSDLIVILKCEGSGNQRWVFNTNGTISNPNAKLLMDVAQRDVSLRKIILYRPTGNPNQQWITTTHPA

Substance | percent reduction of lectin bound to MDCK cells [1] [%] | percent reduction of lectin bound to MDCK cells [2] [%]
native bovine lactoferrin (natural protein) | 40 | –
desialylated bovine lactoferrin (natural protein) | – | 60
